Target: AphC, extradiol dioxygenase from Rhodococcus jostii RHA1 (Rhodococcus jostii RHA1)
Test: crystal structure

stoichiometry N: 4
Substance: AphC, extradiol dioxygenase from Rhodococcus jostii RHA1 (enzyme)

Source: paper PMC9062432
